Experimental data published in patent US20210388087A1 (Chugai, published 2021).
Changes are numbered by the printed parent chain.

B1: CE115HA000 H35G (antibody, human IgG1, kappa, L234A L235A, N297A, name in Kabat numbering)
heavy: QVQLVESGGGVVQPGRSLRLSCAASGFTFSNAWMGWVRQAPGKGLEWVAQIKAKSNNYATYYAESVKGRFTISRDDSKNSLYLQMNSLKTEDTAVYYCRYVHYGAYYGVDAWGQGTTVTVSSASTKGPSVFPLAPSSKSTSGGTAALGCLVKDYFPEPVTVSWNSGALTSGVHTFPAVLQSSGLYSLSSVVTVPSSSLGTQTYICNVNHKPSNTKVDKKVEPKSCDKTHTCPPCPAPEAAGGPSVFLFPPKPKDTLMISRTPEVTCVVVDVSHEDPEVKFNWYVDGVEVHNAKTKPREEQYASTYRVVSVLTVLHQDWLNGKEYKCKVSNKALPAPIEKTISKAKGQPREPQVYTLPPSRCELTKNQVSLSCAVKGFYPSDIAVEWESNGQPENNYKTTPPVLDSDGSFFLVSKLTVDKSRWQQGNVFSCSVMHEALHNHYTQKSLSLSPDYKDDDDK
chain: EPKSSDKTHTCPPCPAPELLGGPSVFLFPPKPKDTLMISRTPEVTCVVVDVSHEDPEVKFNWYVDGVEVHNAKTKPREEQYNSTYRVVSVLTVLHQDWLNGKEYKCKVSNKALPAPIEKTISKAKGQPREPQVCTLPPSRDELTKNQVSLWCLVKGFYPSDIAVEWESNGQPENNYKTTPPVLDSDGSFFLYSKLTVDKSRWQQGNVFSCSVMHEALHNRYTQKSLSLSP
light: DIVMTQSPLSLPVTPGEPASISCRSSQSLVHSNRNTYLHWYQQKPGQAPRLLIYKVSNRFSGVPDRFSGSGSGTDFTLKISRVEAEDVGVYYCGQGTQVPYTFGQGTKLEIKRTVAAPSVFIFPPSDEQLKSGTASVVCLLNNFYPREAKVQWKVDNALQSGNSQESVTEQDSKDSTYSLSSTLTLSKADYEKHKVYACEVTHQGLSSPVTKSFNRGEC
notes: one-arm antibody
B2: CE115HA000 H35N (antibody, human IgG1, kappa, L234A L235A, N297A, name in Kabat numbering)
heavy: B1 heavy with G35N
chain: B1 chain
light: B1 light
notes: one-arm antibody
B3: CE115HA000 H35R (antibody, human IgG1, kappa, L234A L235A, N297A, name in Kabat numbering)
heavy: B1 heavy with G35R
chain: B1 chain
light: B1 light
notes: one-arm antibody
B4: CE115HA000 H96S (antibody, human IgG1, kappa, L234A L235A, N297A, name in Kabat numbering)
heavy: B1 heavy with G35H, H102S
chain: B1 chain
light: B1 light
notes: one-arm antibody
B5: CE115HA000 H96K (antibody, human IgG1, kappa, L234A L235A, N297A, name in Kabat numbering)
heavy: B1 heavy with G35H, H102K
chain: B1 chain
light: B1 light
notes: one-arm antibody
B6: CE115HA000 H35L (antibody, human IgG1, kappa, L234A L235A, N297A, name in Kabat numbering)
heavy: B1 heavy with G35L
chain: B1 chain
light: B1 light
notes: one-arm antibody
B7: CE115HA000 H35M (antibody, human IgG1, kappa, L234A L235A, N297A, name in Kabat numbering)
heavy: B1 heavy with G35M
chain: B1 chain
light: B1 light
notes: one-arm antibody
B8: CE115HA000 H35S (antibody, human IgG1, kappa, L234A L235A, N297A, name in Kabat numbering)
heavy: B1 heavy with G35S
chain: B1 chain
light: B1 light
notes: one-arm antibody
B9: CE115HA000 H96Y (antibody, human IgG1, kappa, L234A L235A, N297A, name in Kabat numbering)
heavy: B1 heavy with G35H, H102Y
chain: B1 chain
light: B1 light
notes: one-arm antibody
B10: CE115HA000 H35Q (antibody, human IgG1, kappa, L234A L235A, N297A, name in Kabat numbering)
heavy: B1 heavy with G35Q
chain: B1 chain
light: B1 light
notes: one-arm antibody
B11: CE115HA000 H35Y (antibody, human IgG1, kappa, L234A L235A, N297A, name in Kabat numbering)
heavy: B1 heavy with G35Y
chain: B1 chain
light: B1 light
notes: one-arm antibody
B12: CE115HA000 H96G (antibody, human IgG1, kappa, L234A L235A, N297A, name in Kabat numbering)
heavy: B1 heavy with G35H, H102G
chain: B1 chain
light: B1 light
notes: one-arm antibody
B13: CE115HA000 H35K (antibody, human IgG1, kappa, L234A L235A, N297A, name in Kabat numbering)
heavy: B1 heavy with G35K
chain: B1 chain
light: B1 light
notes: one-arm antibody
B14: CE115HA000 H96Q (antibody, human IgG1, kappa, L234A L235A, N297A, name in Kabat numbering)
heavy: B1 heavy with G35H, H102Q
chain: B1 chain
light: B1 light
notes: one-arm antibody
B15: CE115HA000 I51E (antibody, human IgG1, kappa, L234A L235A, N297A, name in Kabat numbering)
heavy: B1 heavy with G35H, I51E
chain: B1 chain
light: B1 light
notes: one-arm antibody
B16: CE115HA000 H35W (antibody, human IgG1, kappa, L234A L235A, N297A, name in Kabat numbering)
heavy: B1 heavy with G35W
chain: B1 chain
light: B1 light
notes: one-arm antibody
B17: CE115HA000 H35V (antibody, human IgG1, kappa, L234A L235A, N297A, name in Kabat numbering)
heavy: B1 heavy with G35V
chain: B1 chain
light: B1 light
notes: one-arm antibody
B18: CE115HA000 H96L (antibody, human IgG1, kappa, L234A L235A, N297A, name in Kabat numbering)
heavy: B1 heavy with G35H, H102L
chain: B1 chain
light: B1 light
notes: one-arm antibody
B19: CE115HA000 H96P (antibody, human IgG1, kappa, L234A L235A, N297A, name in Kabat numbering)
heavy: B1 heavy with G35H, H102P
chain: B1 chain
light: B1 light
notes: one-arm antibody
B20: CE115HA000 H96R (antibody, human IgG1, kappa, L234A L235A, N297A, name in Kabat numbering)
heavy: B1 heavy with G35H, H102R
chain: B1 chain
light: B1 light
notes: one-arm antibody
B21: CE115HA000 I51D (antibody, human IgG1, kappa, L234A L235A, N297A, name in Kabat numbering)
heavy: B1 heavy with G35H, I51D
chain: B1 chain
light: B1 light
notes: one-arm antibody
B22: CE115HA000 H35T (antibody, human IgG1, kappa, L234A L235A, N297A, name in Kabat numbering)
heavy: B1 heavy with G35T
chain: B1 chain
light: B1 light
notes: one-arm antibody
B23: CE115HA000 H35I (antibody, human IgG1, kappa, L234A L235A, N297A, name in Kabat numbering)
heavy: B1 heavy with G35I
chain: B1 chain
light: B1 light
notes: one-arm antibody

molecular target: T1, CD3 epsilon homodimer protein (UniProt P07766 23-126); assay: SPR, CD3 epsilon homodimer on chip, one-arm antibody as analyte;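 note: surface plasmon resonance at 25 °C with CD3 epsilon homodimer amine-coupled to a CM4 sensor chip, antibody injected as analyte, HBS-EP+ as running buffer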
T1 construct: also called CD3 (CD3 epsilon)
T1 sequence (P07766 23-126): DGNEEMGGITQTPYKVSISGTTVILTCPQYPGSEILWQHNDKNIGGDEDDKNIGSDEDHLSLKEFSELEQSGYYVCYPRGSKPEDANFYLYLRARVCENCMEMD

In order of falling “KD ratio (KD of CE115HA000/KD of altered form)” value:
1. B11  119000
2. B19  87000
3. B3  15400
4. B16  50.4
5. B1  45.8
6. B17  28.1
7. B13  14.4
8. B23  7.23
9. B9  6.67
10. B21  6.37
11. B6  4.8
12. B10  4.8
13. B22  4.4
14. B7  3.98
15. B18  3.14
16. B8  2.93
17. B2  2.88
18. B20  1.59
19. B5  1.56
20. B14  1.36
21. B4  1.15
22. B12  0.8
23. B15  0.54
